# Laboratory results published in patent publication US20180194841A1 (Regeneron, published 2018).
# Changes are numbered by the printed parent chain.
# T1: His-tagged human FcγRIIA (R131) (human, UniProt P12318 36-218, limits assumed)
# T1 construct: His-tagged, captured on anti-penta-histidine chip; also called human FcyRIIA (R131); FcRγIIA
# T1 sequence (looked up): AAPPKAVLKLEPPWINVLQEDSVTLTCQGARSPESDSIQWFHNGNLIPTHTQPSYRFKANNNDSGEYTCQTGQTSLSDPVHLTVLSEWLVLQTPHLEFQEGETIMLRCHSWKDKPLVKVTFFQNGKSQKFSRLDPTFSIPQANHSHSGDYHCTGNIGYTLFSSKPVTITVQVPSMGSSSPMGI
# T2: His-tagged human FcγRIIA (H131) (human, UniProt P12318 36-218, limits assumed)
# T2 construct: His-tagged, captured on anti-penta-histidine chip; also called hFcyRIIA (H131); FcRγIIA
# T2 sequence (looked up): T1 sequence (looked up) with R132H
# T3: His-tagged human FcγRIIB (human, UniProt P31994 46-217, limits assumed)
# T3 construct: His-tagged, captured on anti-penta-histidine chip; also called human FcyRIIB; FcRγIIB
# T3 sequence (looked up): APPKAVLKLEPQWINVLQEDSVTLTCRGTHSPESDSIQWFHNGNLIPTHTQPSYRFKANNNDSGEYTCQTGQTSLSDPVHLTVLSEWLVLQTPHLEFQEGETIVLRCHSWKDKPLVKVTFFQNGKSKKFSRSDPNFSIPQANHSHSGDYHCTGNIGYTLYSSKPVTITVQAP
# T4: His-tagged cynomolgus FcγRIIA (cynomolgus, UniProt A0A140HDN0 28-215)
# T4 construct: His-tagged, captured on anti-penta-histidine chip; also called cyno FcyRIIA
# T4 sequence: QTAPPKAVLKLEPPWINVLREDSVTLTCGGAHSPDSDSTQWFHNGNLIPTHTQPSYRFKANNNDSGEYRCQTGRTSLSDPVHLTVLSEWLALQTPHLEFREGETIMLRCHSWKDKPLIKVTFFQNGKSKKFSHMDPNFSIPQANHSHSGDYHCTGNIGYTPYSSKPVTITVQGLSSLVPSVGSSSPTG
# T5: His-tagged cynomolgus FcγRIIB (cynomolgus, UniProt A0A140HDP4 43-217)
# T5 construct: His-tagged, captured on anti-penta-histidine chip; also called cyno FcyRIIB
# T5 sequence: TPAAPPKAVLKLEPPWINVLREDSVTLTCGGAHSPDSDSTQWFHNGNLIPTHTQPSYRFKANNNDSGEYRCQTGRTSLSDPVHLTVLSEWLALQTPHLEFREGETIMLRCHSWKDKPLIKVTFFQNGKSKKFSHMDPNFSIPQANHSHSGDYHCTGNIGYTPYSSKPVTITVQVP
# T6: human CD20 (on Raji cells, CD3-, CD20+ human B-cell line; on B16F10.9/CD20 cells) (human, UniProt P11836 1-297)
# T6 sequence (looked up): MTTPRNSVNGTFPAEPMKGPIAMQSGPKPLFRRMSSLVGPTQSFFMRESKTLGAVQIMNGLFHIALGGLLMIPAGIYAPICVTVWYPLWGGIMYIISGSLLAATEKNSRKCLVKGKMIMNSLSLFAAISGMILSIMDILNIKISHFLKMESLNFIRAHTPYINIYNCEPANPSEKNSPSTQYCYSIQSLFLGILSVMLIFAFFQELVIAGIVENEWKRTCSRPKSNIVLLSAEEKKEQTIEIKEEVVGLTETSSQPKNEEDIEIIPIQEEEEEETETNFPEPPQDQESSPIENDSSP
# B1: Antibody 2 (CD3×CD20-chimericFc bispecific antibody) (bispecific antibody)
# heavy 1: EVQLVESGGGLVQPGRSLRLSCVASGFTFNDYAMHWVRQAPGKGLEWVSVISWNSDSIGYADSVKGRFTISRDNAKNSLYLQMHSLRAEDTALYYCAKDNHYGSGSYYYYQYGMDVWGQGTTVTVSSASTKGPSVFPLAPSSKSTSGGTAALGCLVKDYFPEPVTVSWNSGALTSGVHTFPAVLQSSGLYSLSSVVTVPSSSLGTQTYICNVNHKPSNTKVDKKVEPKSCDKTHTCPPCPAPPVAGPSVFLFPPKPKDTLMISRTPEVTCVVVDVSQEDPEVQFNWYVDGVEVHNAKTKPREEQFNSTYRVVSVLTVLHQDWLNGKEYKCKVSNKGLPSSIEKTISKAKGQPREPQVYTLPPSRDELTKNQVSLTCLVKGFYPSDIAVEWESNGQPENNYKTTPPVLDSDGSFFLYSKLTVDKSRWQQGNVFSCSVMHEALHNHYTQKSLSLSPGK
# heavy 2: EVQLVESGGGLVQPGRSLRLSCAASGFTFDDYTMHWVRQAPGKGLEWVSGISWNSGSIGYADSVKGRFTISRDNAKKSLYLQMNSLRAEDTALYYCAKDNSGYGHYYYGMDVWGQGTTVTVASASTKGPSVFPLAPSSKSTSGGTAALGCLVKDYFPEPVTVSWNSGALTSGVHTFPAVLQSSGLYSLSSVVTVPSSSLGTQTYICNVNHKPSNTKVDKKVEPKSCDKTHTCPPCPAPPVAGPSVFLFPPKPKDTLMISRTPEVTCVVVDVSQEDPEVQFNWYVDGVEVHNAKTKPREEQFNSTYRVVSVLTVLHQDWLNGKEYKCKVSNKGLPSSIEKTISKAKGQPREPQVYTLPPSRDELTKNQVSLTCLVKGFYPSDIAVEWESNGQPENNYKTTPPVLDSDGSFFLYSKLTVDKSRWQQGNVFSCSVMHEALHNRFTQKSLSLSPGK
# light: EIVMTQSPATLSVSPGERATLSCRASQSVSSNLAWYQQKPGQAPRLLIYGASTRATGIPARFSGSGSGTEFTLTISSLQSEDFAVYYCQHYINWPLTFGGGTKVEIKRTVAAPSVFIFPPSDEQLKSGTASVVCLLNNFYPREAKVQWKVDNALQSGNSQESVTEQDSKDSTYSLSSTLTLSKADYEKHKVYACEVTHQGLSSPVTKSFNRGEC
# notes: also called Ab 2
# B2: Antibody 1 (CD3×CD20-chimericFc bispecific antibody) (bispecific antibody)
# heavy 1: EVQLVESGGGLVQPGRSLRLSCVASGFTFNDYAMHWVRQAPGKGLEWVSVISWNSDSIGYADSVKGRFTISRDNAKNSLYLQMHSLRAEDTALYYCAKDNHYGSGSYYYYQYGMDVWGQGTTVTVSSASTKGPSVFPLAPCSRSTSESTAALGCLVKDYFPEPVTVSWNSGALTSGVHTFPAVLQSSGLYSLSSVVTVPSSSLGTKTYTCNVDHKPSNTKVDKRVESKYGPPCPPCPAPPVAGPSVFLFPPKPKDTLMISRTPEVTCVVVDVSQEDPEVQFNWYVDGVEVHNAKTKPREEQFNSTYRVVSVLTVLHQDWLNGKEYKCKVSNKGLPSSIEKTISKAKGQPREPQVYTLPPSQEEMTKNQVSLTCLVKGFYPSDIAVEWESNGQPENNYKTTPPVLDSDGSFFLYSRLTVDKSRWQEGNVFSCSVMHEALHNHYTQKSLSLSLGK
# heavy 2: EVQLVESGGGLVQPGRSLRLSCAASGFTFDDYTMHWVRQAPGKGLEWVSGISWNSGSIGYADSVKGRFTISRDNAKKSLYLQMNSLRAEDTALYYCAKDNSGYGHYYYGMDVWGQGTTVTVASASTKGPSVFPLAPCSRSTSESTAALGCLVKDYFPEPVTVSWNSGALTSGVHTFPAVLQSSGLYSLSSVVTVPSSSLGTKTYTCNVDHKPSNTKVDKRVESKYGPPCPPCPAPPVAGPSVFLFPPKPKDTLMISRTPEVTCVVVDVSQEDPEVQFNWYVDGVEVHNAKTKPREEQFNSTYRVVSVLTVLHQDWLNGKEYKCKVSNKGLPSSIEKTISKAKGQPREPQVYTLPPSQEEMTKNQVSLTCLVKGFYPSDIAVEWESNGQPENNYKTTPPVLDSDGSFFLYSRLTVDKSRWQEGNVFSCSVMHEALHNRFTQKSLSLSLGK
# light: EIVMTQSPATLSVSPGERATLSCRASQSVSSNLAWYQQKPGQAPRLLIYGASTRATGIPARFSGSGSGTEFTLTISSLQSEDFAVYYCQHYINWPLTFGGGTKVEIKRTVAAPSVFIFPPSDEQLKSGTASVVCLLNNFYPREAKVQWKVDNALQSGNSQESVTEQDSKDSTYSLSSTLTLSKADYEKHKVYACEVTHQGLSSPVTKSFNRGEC
# notes: also called Ab 1; Ab1
# Legend:
# [1] = target: T1, His-tagged human FcγRIIA (R131); assay: SPR steady-state, 25 C, His-tagged FcγR captured, antibody injected
# Procedure: (§1) The anti-CD3×anti-CD20 bispecific antibodies having chimeric constant heavy chain regions Antibody 1 and Antibody 4 were analyzed using Surface Plasmon Resonance (SPR) (Biacore) technology to determine their kinetic binding parameters to human and cynomolgus Fcγ receptors.
# (§2) Briefly, SPR experiments were performed at 25° C. on a Biacore T200 instrument employing a carboxymethyl dextran-coated (CM-5) chip. A mouse monoclonal anti-penta-histidine antibody (GE Healthcare) was immobilized on the surface of the CM-5 sensor chip using standard amine-coupling chemistry. […] Kinetic association (kₐ) and dissociation (kd) rate constants were determined by processing and fitting the data to a 1:1 binding model using Scrubber 2.0 curve fitting software. Binding dissociation equilibrium constants (KD) and dissociative half-lives (t_{1/2}) were calculated from the kinetic rate constants as: KD (M)=kd/kₐ; and t_{1/2} (min)=(ln 2/(60*kd).
# [2] = target: T2, His-tagged human FcγRIIA (H131); assay: as above
# Procedure: as §1, §2
# [3] = target: T3, His-tagged human FcγRIIB; assay: as above
# Procedure: as §1, §2
# [4] = target: T7, His-tagged cynomolgus FcγRIIIA (cynomolgus, UniProt Q8SPW2 17-208, limits assumed); assay: as above
# T7 construct: His-tagged, captured on anti-penta-histidine chip; also called cyno FcyRIIIA
# Procedure: as §1, §2
# [5] = target: T4, His-tagged cynomolgus FcγRIIA; assay: as above
# Procedure: as §1, §2
# [6] = target: T5, His-tagged cynomolgus FcγRIIB; assay: as above
# Procedure: as §1, §2
# [7] = target: T6, human CD20 (on Raji cells, CD3-, CD20+ …); assay: cell-based or functional assay
# [8] = target: T6, human CD20 (on Raji cells, CD3-, CD20+ …); assay: cell-based or functional assay; remark: listed apart in the source
# T7 sequence (Q8SPW2 17-208 limits assumed): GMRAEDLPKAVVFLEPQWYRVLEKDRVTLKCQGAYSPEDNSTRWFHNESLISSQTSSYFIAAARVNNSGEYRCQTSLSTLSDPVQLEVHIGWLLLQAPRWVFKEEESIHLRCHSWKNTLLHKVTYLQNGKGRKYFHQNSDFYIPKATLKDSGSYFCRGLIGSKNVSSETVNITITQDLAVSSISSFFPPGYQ
Binder,Kd [1] [µM],Kd [2] [µM],Kd [3] [µM],Kd [4] [µM],Kd [5] [µM],Kd [6] [µM],"Raji Cytotoxicity Activated Human T-cells [M] (EC50, calcein release) [7]","Raji Cytotoxicity Activated Monkey T-cells [M] (EC50, calcein release) [7]","% Survival B16F10.9/CD20 cells [M] (EC50, FACS, naive human PBMC effectors, 48 h) [8]"
B1,20.5,11.7,233,42.4,23.5,14.6,,,
B2,19.3,12,123,66.3,23.1,13.9,2.5e-11,9.1e-12,1.95e-11
